Source: the supplement of paper PMC5998384

Experiments:
HeLa Kyoto [1] = test: solubility in G1/S (NP-40 vs SDS abundance) (log2 ratio); higher = more soluble; settings: cell cycle stage: G1/S
HeLa Kyoto [2] = test: melting temperature (median over replicates), in situ; higher = more thermally stable
HeLa Kyoto [3] = test: solubility change mitosis vs G1/S (difference of NP-40 vs SDS log2 ratios) (log2 ratio difference); higher = more soluble in mitosis
HeLa Kyoto [4] = test: thermal stability score vs G1/S (z-score of summed log2 fold changes over temperatures); higher = more thermally stable than in G1/S
[5] = cell cycle stage: early G1 (4.5 h after nocodazole release)
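Wherever melting temperature (median over replicates), in situ is given: HeLa Kyoto cells synchronized by double thymidine or nocodazole block, proteins quantified by TMT10plex mass spectrometry, three independent biological replicates.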
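Wherever solubility change mitosis vs G1/S (difference of NP-40 vs SDS log2 ratios) is given: synchronized HeLa Kyoto cells (double thymidine block for G1/S, nocodazole release for mitosis), protein amounts in NP-40 versus SDS lysates quantified by mass spectrometry, three biological replicates.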
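Wherever solubility in G1/S (NP-40 vs SDS abundance) is given: HeLa Kyoto cells arrested at G1/S by double thymidine block, proteins quantified by TMT10plex mass spectrometry in mild NP-40 versus SDS extracts, three biological replicates.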
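Wherever thermal stability score vs G1/S (z-score of summed log2 fold changes over temperatures) is given: synchronized HeLa Kyoto cells, proteins quantified by TMT10plex mass spectrometry, three biological replicates, mitosis taken 0.5 h after nocodazole release, G1/S directly after double thymidine block.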

Sequence	solubility in G1/S (log2) (HeLa Kyoto [1])	melting temperature (HeLa Kyoto [2]; cell cycle stage: G1/S)	melting temperature (HeLa Kyoto [2]; cell cycle stage: mitosis)	solubility change mitosis (log2) (HeLa Kyoto [3])	thermal stability score (HeLa Kyoto [4]; [5])	thermal stability score (HeLa Kyoto [4]; cell cycle stage: mitosis)
MNREDRNVLRMKERERRNQEIQQGEDAFPPSSPLFAEPYKVTSKEDKLSSRIQSMLGNYDEMKDFIGDRSIPKLVAIPKPTVPPSADEKSNPNFFEQRHGGSHQSSKWTPVGPAPSTSQSQKRSSGLQSGHSSQRTSAGSSSGTNSSGQRHDRESYNNSGSSSRKKGQHGSEHSKSRSSSPGKPQAVSSLNSSHSRSHGNDHHSKEHQRSKSPRDPDANWDSPSRVPFSSGQHSTQSFPPSLMSKSNSMLQKPTAYVRPMDGQESMEPKLSSEHYSSQSHGNSMTELKPSSKAHLTKLKIPSQPLDASASGDVSCVDEILKEMTHSWPPPLTAIHTPCKTEPSKFPFPTKESQQSNFGTGEQKRYNPSKTSNGHQSKSMLKDDLKLSSSEDSDGEQDCDKTMPRSTPGSNSEPSHHNSEGADNSRDDSSSHSGSESSSGSDSESESSSSDSEANEPSQSASPEPEPPPTNKWQLDNWLNKVNPHKVSPASSVDSNIPSSQGYKKEGREQGTGNSYTDTSGPKETSSATPGRDSKTIQKGSESGRGRQKSPAQSDSTTQRRTVGKKQPKKAEKAAAEEPRGGLKIESETPVDLASSMPSSRHKAATKGSRKPNIKKESKSSPRPTAEKKKYKSTSKSSQKSREIIETDTSSSDSDESESLPPSSQTPKYPESNRTPVKPSSVEEEDSFFRQRMFSPMEEKELLSPLSEPDDRYPLIVKIDLNLLTRIPGKPYKETEPPKGEKKNVPEKHTREAQKQASEKVSNKGKRKHKNEDDNRASESKKPKTEDKNSAGHKPSSNRESSKQSAAKEKDLLPSPAGPVPSKDPKTEHGSRKRTISQSSSLKSSSNSNKETSGSSKNSSSTSKQKKTEGKTSSSSKEVKEKAPSSSSNCPPSAPTLDSSKPRRTKLVFDDRNYSADHYLQEAKKLKHNADALSDRFEKAVYYLDAVVSFIECGNALEKNAQESKSPFPMYSETVDLIKYTMKLKNYLAPDATAADKRLTVLCLRCESLLYLRLFKLKKENALKYSKTLTEHLKNSYNNSQAPSPGLGSKAVGMPSPVSPKLSPGNSGNYSSGASSASASGSSVTIPQKIHQMAASYVQVTSNFLYATEIWDQAEQLSKEQKEFFAELDKVMGPLIFNASIMTDLVRYTRQGLHWLRQDAKLIS [AFF4]	0.00478	48.6 °C	51 °C	0.309	0.474	1.75
MNRTKGDEEEYWNSSKFKAFTFDDEDDELSQLKESKRAVNSLRDFVDDDDDDDLERVSWSGEPVGSISWSIRETAGNSGSTHEGREQLKSRNSFSSYAQLPKPTSTYSLSSFFRGRTRPGSFQSLSDALSDTPAKSYAPELGRPKGEYRDYSNDWSPSDTVRRLRKGKVCSLERFRSLQDKLQLLEEAVSMHDGNVITAVLIFLKRTLSKEILFRELEVRQVALRHLIHFLKEIGDQKLLLDLFRFLDRTEELALSHYREHLNIQDPDKRKEFLKTCVGLPFSAEDSAHIQDHYTLLERQIIIEANDRHLESAGQTEIFRKHPRKASILNMPLVTTLFYSCFYHYTEAEGTFSSPVNLKKTFKIPDKQYVLTALAARAKLRAWNDVDALFTTKNWLGYTKKRAPIGFHRVVEILHKNNAPVQILQEYVNLVEDVDTKLNLATKFKCHDVVIDTYRDLKDRQQLLAYRSKVDKGSAEEEKIDALLSSSQIRWKN [VIPAS39]	0.111	49.5 °C	49.2 °C	-0.125	0.126	0.142
MNSAEQTVTWLITLGVLESPKKTISDPEGFLQASLKDGVVLCRLLERLLPGTIEKVYPEPRSESECLSNIREFLRGCGASLRLELLFPPSQPPQHLVTTILLSASTFDANDLYQGQNFNKVLSSLVTLNKVTADIGLGSDSVCARPSSHRIKSFDSLGSQSLHTRTSKLFQGQYRSLDMTDNSNNQLVVRAKFNFQQTNEDELSFSKGDVIHVTRVEEGGWWEGTLNGRTGWFPSNYVREVKASEKPVSPKSGTLKSPPKGFDTTAINKSYYNVVLQNILETENEYSKELQTVLSTYLRPLQTSEKLSSANISYLMGNLEEICSFQQMLVQSLEECTKLPEAQQRVGGCFLNLMPQMKTLYLTYCANHPSAVNVLTEHSEELGEFMETKGASSPGILVLTTGLSKPFMRLDKYPTLLKELERHMEDYHTDRQDIQKSMAAFKNLSAQCQEVRKRKELELQILTEAIRNWEGDDIKTLGNVTYMSQVLIQCAGSEEKNERYLLLFPNVLLMLSASPRMSGFIYQGKLPTTGMTITKLEDSENHRNAFEISGSMIERILVSCNNQQDLQEWVEHLQKQTKVTSVGNPTIKPHSVPSHTLPSHPVTPSSKHADSKPAPLTPAYHTLPHPSHHGTPHTTINWGPLEPPKTPKPWSLSCLRPAPPLRPSAALCYKEDLSKSPKTMKKLLPKRKPERKPSDEEFASRKSTAALEEDAQILKVIEAYCTSAKTRQTLNSTWQGTDLMHNHVLADDDQPSLDSLGRRSSLSRLEPSDLSEDSDYDSIWTAHSYRMGSTSRKSCCSYISHQN [ARHGEF7]	0.105	48.5 °C	49.6 °C	-0.0942	0.815	1.6
MNSNVENLPPHIIRLVYKEVTTLTADPPDGIKVFPNEEDLTDLQVTIEGPEGTPYAGGLFRMKLLLGKDFPASPPKGYFLTKIFHPNVGANGEICVNVLKRDWTAELGIRHVLLTIKCLLIHPNPESALNEEAGRLLLENYEEYAARARLLTEIHGGAGGPSGRAEAGRALASGTEASSTDPGAPGGPGGAEGPMAKKHAGERDKKLAAKKKTDKKRALRRL [UBE2S]	0.347	51 °C	50.9 °C	0.0837	1.11	0.461
MNSSTSTMSEEPDALSVVNQLRDLAADPLNRRAIVQDQGCLPGLILFMDHPNPPVVHSALLALRYLAECRANREKMKGELGMMLSLQNVIQKTTTPGETKLLASEIYDILQSSNMADGDSFNEMNSRRRKAQFFLGTTNKRAKTVVLHIDGLDDTSRRNLCEEALLKIKGVISFTFQMAVQRCVVRIRSDLKAEALASAIASTKVMKAQQVVKSESGEEMLVPFQDTPVEVEQNTELPDYLPEDESPTKEQDKAVSRVGSHPEGGASWLSTAANFLSRSFYW [ARMC1]	0.386	50.6 °C	50.8 °C	0.0691	0.134	0.316
MNTAPSRPSPTRRDPYGFGDSRDSRRDRSPIRGSPRREPRDGRNGRDARDSRDIRDPRDLRDHRHSRDLRDHRDSRSVRDVRDVRDLRDFRDLRDSRDFRDQRDPMYDRYRDMRDSRDPMYRREGSYDRYLRMDDYCRRKDDSYFDRYRDSFDGRGPPGPESQSRAKERLKREERRREELYRQYFEEIQRRFDAERPVDCSVIVVNKQTKDYAESVGRKVRDLGMVVDLIFLNTEVSLSQALEDVSRGGSPFAIVITQQHQIHRSCTVNIMFGTPQEHRNMPQADAMVLVARNYERYKNECREKEREEIARQAAKMADEAILQERERGGPEEGVRGGHPPAIQSLINLLADNRYLTAEETDKIINYLRERKERLMRSSTDSLPGPISRQPLGATSGASLKTQPSSQPLQSGQVLPSATPTPSAPPTSQQELQAKILSLFNSGTVTANSSSASPSVAAGNTPNQNFSTAANSQPQQRSQASGNQPPSILGQGGSAQNMGPRPGAPSQGLFGQPSSRLAPASNMTSQRPVSSTGINFDNPSVQKALDTLIQSGPALSHLVSQTTAQMGQPQAPMGSYQRHY [NCOA5]	-0.619	49.9 °C	49.1 °C	0.489	0.658	1.68
MNTEAEQQLLHHARNGNAEEVRQLLETMARNEVIADINCKGRSKSNLGWTPLHLACYFGHRQVVQDLLKAGAEVNVLNDMGDTPLHRAAFTGRKELVMLLLEYNADTTIVNGSGQTAKEVTHAEEIRSMLEAVERTQQRKLEELLLAAAREGKTTELTALLNRPNPPDVNCSDQLGNTPLHCAAYRAHKQCALKLLRSGADPNLKNKNDQKPLDLAQGAEMKHILVGNKVIYKALKRYEGPLWKSSRFFGWRLFWVVLEHGVLSWYRKQPDAVHNIYRQGCKHLTQAVCTVKSTDSCLFFIKCFDDTIHGFRVPKNSLQQSREDWLEAIEEHSAYSTHYCSQDQLTDEEEEDTVSAADLKKSLEKAQSCQQRLDREISNFLKMIKECDMAKEMLPSFLQKVEVVSEASRETCVALTDCLNLFTKQEGVRNFKLEQEQEKNKILSEALETLATEHHELEQSLVKGSPPASILSEDEFYDALSDSESERSLSRLEAVTARSFEEEGEHLGSRKHRMSEEKDCGGGDALSNGIKKHRTSLPSPMFSRNDFSIWSILRKCIGMELSKITMPVIFNEPLSFLQRLTEYMEHTYLIHKASSLSDPVERMQCVAAFAVSAVASQWERTGKPFNPLLGETYELVRDDLGFRLISEQVSHHPPISAFHAEGLNNDFIFHGSIYPKLKFWGKSVEAEPKGTITLELLEHNEAYTWTNPTCCVHNIIVGKLWIEQYGNVEIINHKTGDKCVLNFKPCGLFGKELHKVEGYIQDKSKKKLCALYGKWTECLYSVDPATFDAYKKNDKKNTEEKKNSKQMSTSEELDEMPVPDSESVFIIPGSVLLWRIAPRPPNSAQMYNFTSFAMVLNEVDKDMESVIPKTDCRLRPDIRAMENGEIDQASEEKKRLEEKQRAARKNRSKSEEDWKTRWFHQGPNPYNGAQDWIYSGSYWDRNYFNLPDIY [OSBPL1A]	0.0257	51 °C	51 °C	-0.0641	-0.0179	-0.158
MNTVLSRANSLFAFSLSVMAALTFGCFITTAFKDRSVPVRLHVSRIMLKNVEDFTGPRERSDLGFITFDITADLENIFDWNVKQLFLYLSAEYSTKNNALNQVVLWDKIVLRGDNPKLLLKDMKTKYFFFDDGNGLKGNRNVTLTLSWNVVPNAGILPLVTGSGHVSVPFPDTYEITKSY [SPCS3]	0.0331	53.5 °C	53.8 °C	-0.0576	0.503	1.67
MNVTPEVKSRGMKFAEEQLLKHGWTQGKGLGRKENGITQALRVTLKQDTHGVGHDPAKEFTNHWWNELFNKTAANLVVETGQDGVQIRSLSKETTRYNHPKPNLLYQKFVKMATLTSGGEKPNKDLESCSDDDNQGSKSPKILTDEMLLQACEGRTAHKAARLGITMKAKLARLEAQEQAFLARLKGQDPGAPQLQSESKPPKKKKKKRRQKEEEEATASERNDADEKHPEHAEQNIRKSKKKKRRHQEGKVSDEREGTTKGNEKEDAAGTSGLGELNSREQTNQSLRKGKKKKRWHHEEEKMGVLEEGGKGKEAAGSVRTEEVESRAYADPCSRRKKRQQQEEEDLNLEDRGEETVLGGGTREAESRACSDGRSRKSKKKRQQHQEEEDILDVRDEKDGGAREAESRAHTGSSSRGKRKRQQHPKKERAGVSTVQKAKKKQKKRD [GPATCH4]	-1.28	47.5 °C	48.6 °C	0.885	1.12	2.93
